Test system: Rv1626 D65E (phosphomimic, Rv1626~P) (Mycobacterium tuberculosis)
Experiment: EMSA

“5' UTR of Mtb Rv1936 (category 1 ANTAR RNA)” was tested, and the Kd was 15 µM.

Reference: paper doi:10.1101/660928
